First the molecules themselves.
B1: TPR 5TU (parent)
chain: GGAUCUUCUCGAUCUAACAAAAAAGACAAAUCUGCCACAAAGCUUGAGAGCAUCUUCGGAUGCAGAGGCGGCAGCCUUCGGUGGCGCGAUAGCGCCAACGUUCUCAACUAUGACACGCAAAACGCGUGCUCCGUUGAAUGGAGUUUAUCAUG

Fewer inactive variants are shown than the library holds.

Variants of B1 are the subject of this data set. As to the kind of experiment: polymerase ribozyme fitness, log enrichment relative to wild type (log ratio); higher = more active; in vitro selection for triplet polymerase activity. Put shortly:
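Mutant libraries were PCR-built and transcribed for each subunit of a heterodimeric triplet polymerase ribozyme and selected for one round in triplicate at −7 °C, frozen, before gel excision of extended constructs and streptavidin-bead capture. Input and output libraries were Illumina-sequenced, keeping genotypes with ≥10 input reads and ≥1 read per output. Fitness is a logarithmic ratio of genotype to wild-type enrichment, in base 2, using inverse-variance-weighted replicate averages.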
Consider C63A C85U, for which the “polymerase ribozyme fitness (log ratio)” value is -0.129.

With U61G C105U A115G A147C G152U, the “polymerase ribozyme fitness (log ratio)” value is at most -4.2.

Consider U61G G124C A147U, for which the “polymerase ribozyme fitness (log ratio)” value is -1.99.

With C63U U134A, the “polymerase ribozyme fitness (log ratio)” value was -2.6.

Take C69A G81A: the “polymerase ribozyme fitness (log ratio)” value is -1.51.

In the case of U61A A66C G80A U82G, the “polymerase ribozyme fitness (log ratio)” value was at most -4.2.

For A66G C114U, the “polymerase ribozyme fitness (log ratio)” value is -4.17.

Turning to G62C A97G, the “polymerase ribozyme fitness (log ratio)” value is -0.203.

Consider G70A G81U, for which the “polymerase ribozyme fitness (log ratio)” value is -3.25.

For G62A G68C C87A, the “polymerase ribozyme fitness (log ratio)” value is at most -4.2.

In the case of G68A C85U C105A G124A G133U, the “polymerase ribozyme fitness (log ratio)” value was at most -4.2.

For the variant A64U C93U A138G, the “polymerase ribozyme fitness (log ratio)” value is at most -4.2.

With A60U G86U, the “polymerase ribozyme fitness (log ratio)” value is -4.01.

On to G68A U90G A150U, for which the “polymerase ribozyme fitness (log ratio)” value is at most -4.2.

Consider G62U A73C G94C, for which the “polymerase ribozyme fitness (log ratio)” value is at most -4.2.

Take G62A G65A A66C U77C U135C U145G: the “polymerase ribozyme fitness (log ratio)” value is at most -4.2.

Regarding G68A G83U G88A A107U C114U, the “polymerase ribozyme fitness (log ratio)” value was at most -4.2.

On to A64U A66G U77C C96G C103G C116A, for which the “polymerase ribozyme fitness (log ratio)” value was at most -4.2.

Take C63G G92A: the “polymerase ribozyme fitness (log ratio)” value was -2.18.

As to C72U C85G C99G C114G, the “polymerase ribozyme fitness (log ratio)” value was at most -4.2.

Take G62C G68A U82G C93A A97G C118A G143U: the “polymerase ribozyme fitness (log ratio)” value was at most -4.2.

In the case of C63U C99G, the “polymerase ribozyme fitness (log ratio)” value was -1.04.

Consider A60U C116U G141A, for which the “polymerase ribozyme fitness (log ratio)” value is -0.772.

As for G62C C93U, the “polymerase ribozyme fitness (log ratio)” value was -3.83.

On to C69A U77G C118U U139C, for which the “polymerase ribozyme fitness (log ratio)” value was at most -4.2.

For the variant G62A C103A G152A, the “polymerase ribozyme fitness (log ratio)” value was -3.85.

As for G62U G92C C96A A98U, the “polymerase ribozyme fitness (log ratio)” value was -2.71.

Take A60U G141A: the “polymerase ribozyme fitness (log ratio)” value was -0.304.

With A60U G141C, the “polymerase ribozyme fitness (log ratio)” value is -1.16.

For the variant G62A G92A, the “polymerase ribozyme fitness (log ratio)” value is -3.43.

For the variant C69A U78G U90G G128A C131U, the “polymerase ribozyme fitness (log ratio)” value was at most -4.2.

Turning to C69U U102C, the “polymerase ribozyme fitness (log ratio)” value was -2.59.

As to A60U C69A A89U, the “polymerase ribozyme fitness (log ratio)” value is -0.419.

For the variant A60G C99G U102A U144G, the “polymerase ribozyme fitness (log ratio)” value was at most -4.2.

Turning to A64C A66U A122G, the “polymerase ribozyme fitness (log ratio)” value was at most -4.2.

Take U61A U102C: the “polymerase ribozyme fitness (log ratio)” value was -2.2.

With A60G C85U, the “polymerase ribozyme fitness (log ratio)” value was -0.323.

As to G68C A97U U102A, the “polymerase ribozyme fitness (log ratio)” value is at most -4.2.

Take G62C C63U: the “polymerase ribozyme fitness (log ratio)” value is -2.25.

With G62C G70A C79G G86C A142C C149U, the “polymerase ribozyme fitness (log ratio)” value is at most -4.2.

As to G68U C85U, the “polymerase ribozyme fitness (log ratio)” value is at most -4.2.

In the case of A60G U104G, the “polymerase ribozyme fitness (log ratio)” value was 0.24.

For the variant C63U G83C C85G C105A A110C, the “polymerase ribozyme fitness (log ratio)” value is at most -4.2.

Take G70C G81A C96A C108U A120G A138C: the “polymerase ribozyme fitness (log ratio)” value was at most -4.2.

Turning to C72U C87A G117C G143U, the “polymerase ribozyme fitness (log ratio)” value is at most -4.2.

In the case of C72G U127C G143U U144G, the “polymerase ribozyme fitness (log ratio)” value was at most -4.2.

With G62A A73C C87G, the “polymerase ribozyme fitness (log ratio)” value was at most -4.2.

Take G62U C76U C85G: the “polymerase ribozyme fitness (log ratio)” value is -2.1.

Take C69U G126C: the “polymerase ribozyme fitness (log ratio)” value is -0.197.

In the case of A60G C63U G94A C114U, the “polymerase ribozyme fitness (log ratio)” value was -2.5.

Regarding C69G G143C, the “polymerase ribozyme fitness (log ratio)” value was -4.1.

With G67C G94A C95G A150G, the “polymerase ribozyme fitness (log ratio)” value was at most -4.2.

C63U C85A: the “polymerase ribozyme fitness (log ratio)” value was -3.57.

In the case of G71A G92U, the “polymerase ribozyme fitness (log ratio)” value was -2.6.

With G71A A91G C93U, the “polymerase ribozyme fitness (log ratio)” value is at most -4.2.

Turning to C69U A115U C123U, the “polymerase ribozyme fitness (log ratio)” value was -1.62.

Regarding U61G G88C, the “polymerase ribozyme fitness (log ratio)” value was at most -4.2.

Consider G68A C99A, for which the “polymerase ribozyme fitness (log ratio)” value is at most -4.2.

For G65C C149G, the “polymerase ribozyme fitness (log ratio)” value is at most -4.2.

For the variant G71A G140U U148C, the “polymerase ribozyme fitness (log ratio)” value is at most -4.2.

As to A66G C76A, the “polymerase ribozyme fitness (log ratio)” value is -3.94.

Consider A66G C85A, for which the “polymerase ribozyme fitness (log ratio)” value is -3.39.

With C63A C85G U134A, the “polymerase ribozyme fitness (log ratio)” value is -4.18.

For G67A C72A A142U A150G, the “polymerase ribozyme fitness (log ratio)” value is at most -4.2.

On to C63A U144C U145A, for which the “polymerase ribozyme fitness (log ratio)” value was -2.97.

As to C63G C87U C129G U139C G143U, the “polymerase ribozyme fitness (log ratio)” value was at most -4.2.

For G71C G86U A91C G133A, the “polymerase ribozyme fitness (log ratio)” value was at most -4.2.

As for G67U U146A, the “polymerase ribozyme fitness (log ratio)” value was -2.89.

G67C C93A G133A U151G: the “polymerase ribozyme fitness (log ratio)” value is at most -4.2.

For the variant C63U C93A, the “polymerase ribozyme fitness (log ratio)” value was -3.69.

For A60G G88U A97U A107G C114U, the “polymerase ribozyme fitness (log ratio)” value was at most -4.2.

Regarding A66C A106G U144G, the “polymerase ribozyme fitness (log ratio)” value was at most -4.2.

Turning to G70A U77G U78G C87A A97C A122U, the “polymerase ribozyme fitness (log ratio)” value was at most -4.2.

As for U61A U146C, the “polymerase ribozyme fitness (log ratio)” value was -0.489.

Consider G62A A120C, for which the “polymerase ribozyme fitness (log ratio)” value was -1.04.

Turning to C69G C108U U148A, the “polymerase ribozyme fitness (log ratio)” value is at most -4.2.

On to C72U C75U C87A U90A C95G U102G A150G, for which the “polymerase ribozyme fitness (log ratio)” value is at most -4.2.

Turning to A64G G84U, the “polymerase ribozyme fitness (log ratio)” value was -4.16.

In the case of G68C C69A G92U G136A, the “polymerase ribozyme fitness (log ratio)” value is -4.11.

Turning to G62C A64G G83C U102G C114U U127G, the “polymerase ribozyme fitness (log ratio)” value was at most -4.2.

Take G71A C93U: the “polymerase ribozyme fitness (log ratio)” value was -2.94.

On to G70A G124C U144C, for which the “polymerase ribozyme fitness (log ratio)” value was at most -4.2.

Take A66C U134C: the “polymerase ribozyme fitness (log ratio)” value is at most -4.2.

(Values after the RNAGym collection of RNA variant scans (doi:10.1073/pnas.2313332121).)
